Values of other authors, collected in paper PMC8083718.

Target: ACE2 (Homo sapiens) (UniProt Q9BYF1)
Sequence (Q9BYF1 18-740): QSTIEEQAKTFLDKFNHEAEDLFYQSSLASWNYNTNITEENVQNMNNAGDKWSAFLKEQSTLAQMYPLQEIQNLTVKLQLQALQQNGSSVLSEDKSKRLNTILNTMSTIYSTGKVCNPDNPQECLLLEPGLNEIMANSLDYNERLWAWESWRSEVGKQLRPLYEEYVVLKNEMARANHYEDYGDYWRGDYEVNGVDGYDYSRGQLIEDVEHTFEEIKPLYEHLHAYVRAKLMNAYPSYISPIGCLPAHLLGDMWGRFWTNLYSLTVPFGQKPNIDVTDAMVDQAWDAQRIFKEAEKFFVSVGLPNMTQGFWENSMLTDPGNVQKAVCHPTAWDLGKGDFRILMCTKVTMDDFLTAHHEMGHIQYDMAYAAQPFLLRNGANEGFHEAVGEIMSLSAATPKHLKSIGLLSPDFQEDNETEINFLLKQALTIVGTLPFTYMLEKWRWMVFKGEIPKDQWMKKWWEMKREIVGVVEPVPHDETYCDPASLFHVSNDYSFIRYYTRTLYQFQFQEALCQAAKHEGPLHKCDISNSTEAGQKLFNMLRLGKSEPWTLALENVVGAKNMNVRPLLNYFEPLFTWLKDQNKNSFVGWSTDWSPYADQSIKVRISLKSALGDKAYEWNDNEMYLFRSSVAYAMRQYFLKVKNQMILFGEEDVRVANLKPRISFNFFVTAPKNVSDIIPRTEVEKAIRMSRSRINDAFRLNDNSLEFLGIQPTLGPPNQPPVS

In the case of spike protein (from UniProt P59594), the Kd is listed as 0.12 nM.
